Assay results taken from US20030054336A1.

What was measured:
[1] = target: Antigen 2 (Consensus D, biotinylated peptide from gp41 epitope region II of HIV1 subtype D) (HIV1 subtype D (consensus)); assay: bridge ELISA, Bi-Antigen 2 + Dig-Antigen 4
[2] = target: Antigen 1 (Consensus B, biotinylated peptide from gp41 epitope region II of HIV1 subtype B) (HIV1 subtype B (consensus)); assay: bridge ELISA, Bi-Antigen 1 + Dig-Antigen 3

Negative control
signal [1]: 0.03 U | signal [2]: 0.05 U
